Among the data in paper PMC5071168 are catalytic efficiency (kcat/Km) of LvTIM-Cys47Ala, similar to wild-type LvTIM and stoichiometry N values, retold here.

For test [1], the target named is LvTIM-Cys47Ala (Litopenaeus vannamei).
The target of test [2] is triosephosphate isomerase from Litopenaeus vannamei (LvTIM), wild type (Litopenaeus vannamei). Nature of the test: SEC. A general note: In gel filtration, larger molecules generally elute earlier.

Regarding LvTIM-Cys47Ala (enzyme), the catalytic efficiency (kcat/Km) of LvTIM-Cys47Ala, similar to wild-type LvTIM in test [1] came out at 2.33e+06 M⁻¹ s⁻¹.
Regarding “triosephosphate isomerase from Litopenaeus vannamei (LvTIM), wild type (enzyme)”, in test [2], the stoichiometry N – broadly, the number of molecules, sites or subunits per partner or assembly – was determined as 2.
